According to patent publication US9629910B2, “Use of Th9 cells and IL-9 for the treatment of melanoma” (THE BRIGHAM AND WOMEN'S HOSPITAL, INC., priority 2011, dated 2017):

How the values were obtained:
B16F10 melanoma cells = assay: B16F10 melanoma growth in mice treated with rIL-9 (i.p.); format: in vivo
Procedure: (§1) Melanoma cell lines (B16F10 cells or B16F10-ova cells), T cell lymphoma (EL-4 or ovalbumin expressing EL-4 (EG-7)) and Lewis lung carcinoma (LLC1) were grown in RPMI1640 supplemented with 10% FBS, and penicillin/streptomycin. B16F10 cells (2-4×10^5 cells/150 μl/mouse), EL-4 (2×10^5 cells/150 μA/mouse), or LLC1 (5×10^5 cells/150 μA/mouse) were injected subcutaneously into the right or left flank of the mice and tumor development was monitored over time. Tumor volume was calculated by following formula: (major circumference×minor circumference^2)/2. Mice were sacrificed when there was external necrosis or/and tumor volume reached no greater than 2 cm in any direction.
(§2) rIL-9 (5 μg/100 μA PBS/mouse from Cell Sciences, USA) was injected (ip) from day 0 and every third day till the termination of the experiment. In lewis lung carcinoma (LLC-1) model, rIL-9 (50 ng/100 μl PBS/mouse from RnD systems) was used on every alternate day till the termination of experiment. Unlike Cell Science rIL-9 (source: E. coli), rIL-9 from RnD systems is glycosylated and therefore has stronger biological activity compared to Cell Sciences. Thus, 100 times less rIL-9 was used in LLC-1 tumor model experiments compared to melanoma model experiments.

[1] = system: Lewis lung carcinoma (LLC-1) cells; assay: Lewis lung carcinoma (LLC-1) tumor growth in mice treated with rIL-9; format: in vivo
Procedure: as §1, §2

EL-4 T lymphoma cells = assay: EL-4 tumor growth in mice treated with IL-9; format: in vivo; details: IL-9 treatment (data not included)
Procedure: as §1

B16F10 cells = assay: Growth curve assay of tumor cells with rIL-9 (crystal violet); format: cell-based, mouse; details: melanoma cells and lung carcinoma cells, rIL-9 at different concentrations (FIG. 10D)
Procedure: Effect of rIL-9 on growth of B16F10 cells were studied by growth curve assay. B16F10 cells were seeded with rIL-9. After each incubation period cells were fixed (10% acetic acid in 10% ethanol). Cells were subsequently stained with 0.4% crystal violet in 10% ethanol for 30 min. Subsequently, 200 μl 10% acetic acid was added. After 30 min, 100 μL solution was transferred into 96-well plate and OD was measured at 595-wavelength.

B1: rIL-9: recombinant interleukin-9 cytokine from Cell Sciences, injected ip 5 μg/mouse in melanoma model (protein, UniProt P15247 19-144, looked up)
Interleukin-9: QRCSTTWGIRDTNYLIENLKDDPPSKCSCSGNVTSCLCLSVPTDDCTTPCYREGLLQLTNATQKSRLLPVFHRVKRIVEVLKNITCPSFSCEKPCNQTMAGNTLSFLKSLLGTFQKTEMQRQKSRP
For B1, the melanoma growth (B16F10 melanoma cells; Rag1-/- C57BL/6 mice (lack T and B cells), rIL-9 vs PBS (FIG. 5D)) was “significantly slowed melanoma growth”, the tumor development (B16F10 melanoma cells; mast cell deficient mice (Kit W-sh), B16 melanoma, vs control (FIG. 5E)) was “no significant difference in tumor development” and the survival of mice (B16F10 melanoma cells; melanoma bearing mice, rIL-9 (data not shown)) was “increased the survival of mice”. The “melanoma growth in vaccinated mice” value (B16F10 melanoma cells; mice vaccinated with 1 million irradiated melanoma cells, melanoma cells injected 7 days later, rIL-9 vs PBS) was “significantly slower melanoma growth”, the melanoma growth (B16F10 melanoma cells; normal WT mice, B16F10 s.c., rIL-9 i.p. vs PBS (FIG. 5B)) was “impaired melanoma growth” and the tumor development ([1]; mast cell deficient mice (Kit W-sh), LLC-1, vs control (FIG. 5F)) was “no significant difference in tumor development”. The LLC-1 tumor development ([1]; normal WT mice, rIL-9 vs control group (FIG. 5C)) was “significantly suppressed”, the EL-4 tumor growth (EL-4 T lymphoma cells) was “neither inhibition nor acceleration” and the “tumor cell growth in vitro” value (B16F10 cells) was “does not affect the growth of these cells in vitro”.
